Data as given in US6153580.

Biological target: β-casein

Hin47 Ser-197→alanine analog (enzyme)
protease activity on the substrate β-casein: < 10%
